Measured values reported in paper PMC6213480, “A Novel Cold-Adapted Leucine Dehydrogenase from Antarctic Sea-Ice Bacterium Pseudoalteromonas sp. ANT178” (Marine Drugs, 2018).

Assays:
Test in all cases: purified protein
Format in all cases: biochemical, Pseudoalteromonas sp. ANT178
Settings in all cases: oxidative deamination with NAD+, standard assay 0.1 M glycine-NaOH pH 10.4, 1 mM NAD+, 30 °C
CSCCC(N)C(=O)O = system: CSCCC(N)C(=O)O
CC(C)C[C@H](N)C(=O)O = system: CC(C)C[C@H](N)C(=O)O
N=C(N)NCCC[C@H](N)C(=O)O = system: N=C(N)NCCC[C@H](N)C(=O)O
[1] = system: N[C@@H](Cc1ccc(O)cc1)C(=O)O

rPsLeuDH (Pseudoalteromonas sp.)
Km (CSCCC(N)C(=O)O): 750 µM | Vmax (CSCCC(N)C(=O)O): 8.38 µmol/min/mg | kcat (CSCCC(N)C(=O)O): 16.6 s⁻¹ | kcat/Km (CSCCC(N)C(=O)O): 22100 M⁻¹ s⁻¹ | Km (CC(C)C[C@H](N)C(=O)O): 330 µM | Vmax (CC(C)C[C@H](N)C(=O)O): 15.2 µmol/min/mg | kcat (CC(C)C[C@H](N)C(=O)O): 30.1 s⁻¹ | kcat/Km (CC(C)C[C@H](N)C(=O)O): 91300 M⁻¹ s⁻¹ | Km (N=C(N)NCCC[C@H](N)C(=O)O): 840 µM | Vmax (N=C(N)NCCC[C@H](N)C(=O)O): 7.13 µmol/min/mg | kcat (N=C(N)NCCC[C@H](N)C(=O)O): 14.1 s⁻¹ | kcat/Km (N=C(N)NCCC[C@H](N)C(=O)O): 16800 M⁻¹ s⁻¹ | Km [1]: 480 µM | Vmax [1]: 13.3 µmol/min/mg | kcat [1]: 26.4 s⁻¹ | kcat/Km [1]: 55000 M⁻¹ s⁻¹
